Tests used:
[1] = biological target: Sorbitol dehydrogenase SmoS from Sinorhizobium meliloti 1021 (Sinorhizobium meliloti 1021); experiment: crystal structure
[2] = biological target: Sorbitol dehydrogenase SmoS from Sinorhizobium meliloti 1021 (Sinorhizobium meliloti 1021); experiment: SEC

## Sorbitol dehydrogenase SmoS from Sinorhizobium meliloti 1021 (enzyme)
[1]
  stoichiometry N: 4
[2]
  stoichiometry N: 4

Source: paper doi:10.1101/689042
